Measurements reported in the DeepSol protein solubility set.

Assay: soluble on expression in E. coli; label from the status in PepcDB or PDB records

Sequence | soluble on expression in E. coli
MSLERLNKPSAPRYSRLREWVVGCAPNDLVVVKFGGSVLNGSPGFLAAGRLVLGLLESGLEPVVVVSAVKGVTDALLSSFERRDPGVGGAVGKTYLSIARELGLPPESVRDVSLASAEVSKLLWAAEVLGQWTPRVRDLVVSYGERLSAALMAGLLRRLGVEARWLGGGEAGIVTDGEFGDATPLYGYTEGVIRERLEPMLEEGVVPVVAGFTGATREGDTTLLGRGGSDLTATLLASALGAGRVVLYTDVPGILSGDPRVVGEPRRVGYMSYEEAWEVARLGLRKFHPRTFEPLIAGGLGVEVVVSDLRGRSTRIGPGRGGPPLKVVSLSRGVARLVVRGPSMAGKRGFLSRLAGLLAGRGVNILAIRQPPSETAIELVVDERDLPAAVEELGARSGAAGVRLEVERGFDVVSIVGWGAVEALPEALSAAEKTGGRLLSTGELSPSISILARGRTSPELARLLHRRVVESWVTGEGHHHHHH | not soluble
MSDTVEELVQRAKLAEQAERYDDMAAAMKKVTEQGQELSNEERNLLSVAYKNVVGARRSSWRVISSIEQKTEGSEKKQQLAKEYRVKVEQELNDICQDVLKLLDEFLIVKAGAAESKVFYLKMKGDYYRYLAEVASEDRAAVVEKSQKAYQEALDIAKDKMQPTHPIRLGLALNFSVFYYEILNTPEHACQLAKQAFDDAIAELDTLNEDSYKDSTLIMQLLRDNLTLWTSDVGAEDQEQEGNQEAGN | soluble
MGSDKIHHHHHHMVNLDGGYTAYEQQHNNESFKLEKDKEIQIKDNRKTFNYSNLQCPGPIVNISKEIKNIAIGDQIEVVVTDHGFLNDIKSWVKQTGHTLVRLNDSGNEIRAIIQKEENKNIEVTHTKNGTTIVLFSGELDKAVAAMIIANGAKAAGRDVTIFCTFWGLNALKKIQSQRIKKKGIAKLFDFMLPNSPIKMPISKMNMFGVGNLMMRYVMKKKNVDDLPSLINQAVEQGVKLIACTMSMDVMGISKEELRDDVEYGGVGAYIGYTEQANHNLFI | not soluble
MPSVESFELDHNAVVAPYVRHCGVHKVGTDGVVNKFDIRFCQPNKQAMKPDTIHTLEHLLAFTIRSHAEKYDHFDIIDISPMGCQTGYYLVVSGETTSAEIVDLLEDTMKEAVEITEIPAANEKQCGQAKLHDLEGAKRLMRFWLSQDKEELLKVFG | soluble
MNKRNTQQRRHSIISILNEQGEVSVDELSLRFETSEVTIRKDLAELEKTGLLLRRYGGAVAIPDEVTQQFSAKIAPNKLSIAKAAAQLIKDHNRIIIDSGTTTSGLIAELNQKRGLVVMTNALHLANAIHELENEPTLLMTGGTWDPHSESFQGQVAEQVLRSYNFDQLFIGADGIDLARGTTTFNELTGLSKVMAEVSREVIVMVDSDKIGKRIPNLELPWSKISVLVTDARIEESALKQITEQGVKVILAPYSPLEHHHHHH | soluble
MLTMKDVIREGDPILRNVAEEVVIPASEEDTNTLKEMIEFVINSQDPEMAEKYSLRPGIGLAAPQIGISKKMIAVHVTDTDGTLYSHALFNPKIISHSVERTYLQSGEGCLSVDREVPGYVPRYTRITVKATSINGEEVKLRLKGLPAIVFQHEIDHLNGVMFYDHINKENPFAAPDGSKPLER | not soluble
MGSDKIHHHHHHMNPNTVPPAARDVAWIKHALQTAIELEYSTLPLYLSAMFSLEVQNYTAYNAIRSIAMEEMVHMAIAANLLAALGGSPQFKPIQIAYPTTGLPGGAEPDLHVGLARYSKPQLKNFLRIETPGFLLRQLGRDEGYPTIAAFYESIRSAIARNANAVRAAVQAGGPANQVGDDIGFTTVTYKPGVDPVESFDAGIGEILQQGEGSGRGDVFAGNPFEDEESHYARFAELYYGARYQAPSPPVDFNPKNEPLFFGGPAIAAPVVVNTLAVPRDGYARILALDPERDTVESDLNAFDSGFSKILSTLDAVWNGPSSTSWKTLGAAVHGMVDLRVLSCFNIMRHAVPAAAVSQLAELYPDEIGFLRTYTDLSKPVFYGPRFVNVNGKQAS | not soluble
MSLKRAIIIGATSGIGKEVAQRLLSEGWQIGIAGRRQSALEEFRQIAPEQIKIQSLDVTQEYSAGKLDALIHQLGGMDLFLLSSGIGFQNMELNMEIELNTARTNVEGFTRMVDTAFSYFRNNGGGHLAVISSIAGTKGLGVAPAYSATKRFQNTYIDALEQLSHLQKLDIHFTDIRPGFVATDLLNDGKHYPMLMKTDQVGRDIVRALHRKEGHHHHHH | not soluble
